Data taken from the supplement of paper PMC9732359.
± gives the uncertainty stated by the source.

Experiment: protein stability index of a GFP-peptide fusion (yeast GPS) (PSI 1-4); higher = more stable; sorted into four equal gates, so the index is relative within each strain
Summary of the method: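 Tiled yeast protein peptides of 17 residues were each joined downstream of GFP, on plasmids that also express Cherry. The pooled library was maintained in yeast, and mid-log cultures in leucine-free medium were sorted into four equal gates on the GFP/Cherry ratio. Plasmids from every gate were amplified by PCR and sequenced on Illumina, with barcodes linking reads to strains. The protein stability index of a peptide is its gate-number-weighted read frequency summed over the gates.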

PIDDTMTLLTDSLRKLY [MTW1]
protein stability index (doa10∆): 1.89 ± 0.067
protein stability index (pdr5∆): 2.52 ± 0.062
protein stability index (san1∆): 1.73 ± 0.093
protein stability index (ubr1∆): 2.22 ± 0.052

RSLRATAEERVGRRAAN [RPL15A]
protein stability index (doa10∆): 3.56 ± 0.24
protein stability index (pdr5∆): 3.52 ± 0.19
protein stability index (san1∆): 3.03 ± 0.2
protein stability index (ubr1∆): 2.95 ± 0.1

REKRDRTHFKRMRFPPF [PRP8]
protein stability index (doa10∆): 2.27 ± 0.05
protein stability index (pdr5∆): 2.64 ± 0.069
protein stability index (san1∆): 2.22 ± 0.098
protein stability index (ubr1∆): 2.2 ± 0.047

DPAHSLNYTVINFKSRE [AAR2]
protein stability index (doa10∆): 3.07 ± 0.054
protein stability index (pdr5∆): 3.1 ± 0.059
protein stability index (san1∆): 3.14 ± 0.046
protein stability index (ubr1∆): 3.22 ± 0.037

DTRITHLLRQTNAFLDS [SNF2]
protein stability index (doa10∆): 1.5 ± 0.037
protein stability index (pdr5∆): 1.47 ± 0.033
protein stability index (san1∆): 1.54 ± 0.064
protein stability index (ubr1∆): 1.61 ± 0.024

KPYSGKLLKVCLTMFED [ECM29]
protein stability index (doa10∆): 2.18 ± 0.056
protein stability index (pdr5∆): 2.17 ± 0.058
protein stability index (san1∆): 2.67 ± 0.045
protein stability index (ubr1∆): 2.36 ± 0.058

MQLEEELMKLDGTEYVL [MED6]
protein stability index (doa10∆): 3.26 ± 0.15
protein stability index (pdr5∆): 3.4 ± 0.11
protein stability index (san1∆): 3.21 ± 0.091
protein stability index (ubr1∆): 3.26 ± 0.076

LPDEKSDAMSIDEEDKD [YCG1]
protein stability index (doa10∆): 3.04 ± 0.17
protein stability index (pdr5∆): 2.36 ± 0.11
protein stability index (san1∆): 2.94 ± 0.12
protein stability index (ubr1∆): 3.06 ± 0.074

NDSETHTEDESTKELKF [BRN1]
protein stability index (doa10∆): 3.2 ± 0.17
protein stability index (pdr5∆): 3.13 ± 0.13
protein stability index (san1∆): 3.17 ± 0.094
protein stability index (ubr1∆): 3.19 ± 0.068

ISKTVRFNVVKVSAAAG [RPS11A]
protein stability index (doa10∆): 3.19 ± 0.17
protein stability index (pdr5∆): 1.6 ± 0.13
protein stability index (ubr1∆): 1.64 ± 0.11

ELTLAEQQVKEAEMAYV [SMC4]
protein stability index (doa10∆): 3.02 ± 0.1
protein stability index (pdr5∆): 3.1 ± 0.076
protein stability index (san1∆): 2.81 ± 0.078
protein stability index (ubr1∆): 2.81 ± 0.074

IILGTNLYDGAEHKYMP [BRR2]
protein stability index (doa10∆): 3.06 ± 0.12
protein stability index (pdr5∆): 3.47 ± 0.096
protein stability index (san1∆): 3.6 ± 0.087
protein stability index (ubr1∆): 3.27 ± 0.1

PLSQDELISLRKILESS [YIL149C/MLP2]
protein stability index (doa10∆): 2.45 ± 0.077
protein stability index (pdr5∆): 2.67 ± 0.067
protein stability index (san1∆): 2.15 ± 0.076
protein stability index (ubr1∆): 2.32 ± 0.093

YDLLISTLTTISGNPPL [SRB5]
protein stability index (doa10∆): 2.43 ± 0.052
protein stability index (pdr5∆): 2.3 ± 0.045
protein stability index (san1∆): 1.77 ± 0.07
protein stability index (ubr1∆): 2.46 ± 0.04

IHSLVKQRLDLARQVKL [YIL149C/MLP2]
protein stability index (doa10∆): 2.69 ± 0.064
protein stability index (pdr5∆): 2.6 ± 0.061
protein stability index (san1∆): 3.03 ± 0.064
protein stability index (ubr1∆): 2.83 ± 0.047

GGFTNLTSQAPQTTQMF [YDL088C/ASM4]
protein stability index (doa10∆): 3.35 ± 0.12
protein stability index (pdr5∆): 3.09 ± 0.091
protein stability index (san1∆): 3.38 ± 0.077
protein stability index (ubr1∆): 3.08 ± 0.068

QGTNSVPNSIGNIFSNI [SNF5]
protein stability index (doa10∆): 2.91 ± 0.068
protein stability index (pdr5∆): 3.12 ± 0.095
protein stability index (san1∆): 3.15 ± 0.12
protein stability index (ubr1∆): 2.98 ± 0.052

TMLELLNQLDGFETSKN [RPT6]
protein stability index (doa10∆): 2.92 ± 0.13
protein stability index (pdr5∆): 3.13 ± 0.11
protein stability index (san1∆): 2.63 ± 0.2
protein stability index (ubr1∆): 2.84 ± 0.087

ASILLALTQMDQDKVNF [RPB3]
protein stability index (doa10∆): 3.18 ± 0.11
protein stability index (pdr5∆): 3.28 ± 0.094
protein stability index (san1∆): 3.24 ± 0.073
protein stability index (ubr1∆): 2.93 ± 0.056

DFDGDEMNLHVPQSEET [RPO21]
protein stability index (doa10∆): 3.04 ± 0.083
protein stability index (pdr5∆): 3.12 ± 0.063
protein stability index (san1∆): 2.98 ± 0.045
protein stability index (ubr1∆): 3.23 ± 0.074

EANWPLPVNIRRIIQNA [RPO21]
protein stability index (doa10∆): 1.77 ± 0.088
protein stability index (pdr5∆): 1.37 ± 0.089
protein stability index (ubr1∆): 1.04 ± 0.064

GVSRQIAASAFLSLLNL [REC8]
protein stability index (doa10∆): 1.5 ± 0.047
protein stability index (pdr5∆): 1.31 ± 0.045
protein stability index (san1∆): 1.17 ± 0.14
protein stability index (ubr1∆): 1.23 ± 0.038

YIELLPNADDIRDSIPQ [DIS3]
protein stability index (doa10∆): 2.83 ± 0.075
protein stability index (pdr5∆): 2.85 ± 0.068
protein stability index (san1∆): 2.87 ± 0.078
protein stability index (ubr1∆): 2.75 ± 0.039

TDVEKSDPAAKKTATEP [SRP21]
protein stability index (doa10∆): 3.2 ± 0.11
protein stability index (pdr5∆): 3.02 ± 0.085
protein stability index (san1∆): 3.32 ± 0.046
protein stability index (ubr1∆): 3.18 ± 0.096

TNAGYTIELAGGGYFSA [FAS1]
protein stability index (doa10∆): 2.39 ± 0.078
protein stability index (pdr5∆): 2.28 ± 0.088
protein stability index (san1∆): 1.72 ± 0.11
protein stability index (ubr1∆): 2.09 ± 0.068

VYANNPEVSDDGGLEEE [SIR3]
protein stability index (doa10∆): 2.97 ± 0.13
protein stability index (pdr5∆): 2.87 ± 0.12
protein stability index (san1∆): 2.52 ± 0.14
protein stability index (ubr1∆): 3.04 ± 0.09

GLIPYPHHNQSPRNTYQ [RET1]
protein stability index (doa10∆): 2.58 ± 0.078
protein stability index (pdr5∆): 2.77 ± 0.095
protein stability index (san1∆): 2.83 ± 0.069
protein stability index (ubr1∆): 2.93 ± 0.069

AVVFKPFKGEVVDGTVV [RPB7]
protein stability index (doa10∆): 3.05 ± 0.1
protein stability index (pdr5∆): 3.03 ± 0.048
protein stability index (san1∆): 2.79 ± 0.062
protein stability index (ubr1∆): 2.79 ± 0.068

PAFSFGISNGSESKDSD [YLR335W/NUP2]
protein stability index (doa10∆): 3.23 ± 0.093
protein stability index (pdr5∆): 3.05 ± 0.11
protein stability index (san1∆): 3.12 ± 0.063
protein stability index (ubr1∆): 3.08 ± 0.088

SASSKEFNFTNLQAKPL [YAR002W/NUP60]
protein stability index (doa10∆): 2.43 ± 0.072
protein stability index (pdr5∆): 2.26 ± 0.068
protein stability index (san1∆): 2.46 ± 0.06
protein stability index (ubr1∆): 2.42 ± 0.051

GLTSRLQRQQRKSKLNL [POP4]
protein stability index (doa10∆): 2.65 ± 0.12
protein stability index (pdr5∆): 3.34 ± 0.18
protein stability index (san1∆): 3.09 ± 0.063
protein stability index (ubr1∆): 3.67 ± 0.27

LLAVAIAASYHYPEIED [RPP0]
protein stability index (doa10∆): 1.38 ± 0.074
protein stability index (pdr5∆): 2.11 ± 0.11
protein stability index (san1∆): 1.73 ± 0.13
protein stability index (ubr1∆): 1.91 ± 0.08

DLSRIMDWLDNWGRKEH [ITC1]
protein stability index (doa10∆): 3.31 ± 0.2
protein stability index (pdr5∆): 3.33 ± 0.26
protein stability index (san1∆): 3.48 ± 0.14

KRPIESGTSSDPDTKKV [YIL149C/MLP2]
protein stability index (doa10∆): 3.35 ± 0.079
protein stability index (pdr5∆): 3.2 ± 0.053
protein stability index (san1∆): 3.2 ± 0.062
protein stability index (ubr1∆): 3.29 ± 0.072

SAKAELEKLVDHHPEGL [PRE10]
protein stability index (doa10∆): 2.84 ± 0.065
protein stability index (pdr5∆): 2.91 ± 0.055
protein stability index (san1∆): 2.55 ± 0.068
protein stability index (ubr1∆): 2.75 ± 0.048

SLEENAMSTVTLGVVGK [SKI6]
protein stability index (doa10∆): 3.22 ± 0.16
protein stability index (pdr5∆): 3.21 ± 0.14
protein stability index (san1∆): 3.04 ± 0.099
protein stability index (ubr1∆): 2.72 ± 0.11

AAAGGDAAAEEEKEEEA [RPP1B]
protein stability index (doa10∆): 3.32 ± 0.21
protein stability index (pdr5∆): 3.46 ± 0.16
protein stability index (san1∆): 3.16 ± 0.2
protein stability index (ubr1∆): 3.08 ± 0.23

KALDRHEFFIANHDDQD [SRP68]
protein stability index (doa10∆): 3.1 ± 0.058
protein stability index (pdr5∆): 2.98 ± 0.091
protein stability index (san1∆): 2.89 ± 0.057
protein stability index (ubr1∆): 3.17 ± 0.07

NKLDEYHGLYTNYEMSY [LIN1]
protein stability index (doa10∆): 1.56 ± 0.065
protein stability index (pdr5∆): 1.78 ± 0.059
protein stability index (san1∆): 1.78 ± 0.093
protein stability index (ubr1∆): 1.6 ± 0.068

GNSEAIPGLSAGVNNDN [RTT102]
protein stability index (doa10∆): 3.21 ± 0.086
protein stability index (pdr5∆): 3.53 ± 0.082
protein stability index (san1∆): 3.39 ± 0.069
protein stability index (ubr1∆): 3.47 ± 0.084

DESYARAYRIIRAHQTE [QCR7]
protein stability index (doa10∆): 3.17 ± 0.17
protein stability index (pdr5∆): 3.43 ± 0.17
protein stability index (san1∆): 3.14 ± 0.22
protein stability index (ubr1∆): 3.41 ± 0.091

KVEKRVLGLTILRGEQI [SMB1]
protein stability index (doa10∆): 1.69 ± 0.078
protein stability index (pdr5∆): 2.15 ± 0.12
protein stability index (san1∆): 2 ± 0.17
protein stability index (ubr1∆): 1.95 ± 0.091

LQGISTLRPRQYATVSK [RPL34A]
protein stability index (doa10∆): 2.59 ± 0.13
protein stability index (pdr5∆): 2.75 ± 0.13

LGSQSKSDEGGSYLCTS [YOR098C/NUP1]
protein stability index (doa10∆): 3.26 ± 0.11
protein stability index (pdr5∆): 2.98 ± 0.07
protein stability index (san1∆): 3.14 ± 0.069
protein stability index (ubr1∆): 2.71 ± 0.081

TAFNKTRGPFHFRAPSR [RPL16B]
protein stability index (doa10∆): 2.95 ± 0.09
protein stability index (pdr5∆): 3.14 ± 0.068
protein stability index (san1∆): 2.59 ± 0.066
protein stability index (ubr1∆): 3 ± 0.066

EPSGIYSSWSAQTIGRN [PRE6]
protein stability index (doa10∆): 1.24 ± 0.064
protein stability index (pdr5∆): 1.21 ± 0.089
protein stability index (san1∆): 1.06 ± 0.18
protein stability index (ubr1∆): 1.53 ± 0.097

QGPRSYFLDVKCPGCLN [RPS27A]
protein stability index (doa10∆): 2.93 ± 0.097
protein stability index (pdr5∆): 3.38 ± 0.1
protein stability index (san1∆): 3.13 ± 0.08
protein stability index (ubr1∆): 2.6 ± 0.11

SSQVREHVKELLKYSNE [RPL1A]
protein stability index (doa10∆): 1.63 ± 0.077
protein stability index (pdr5∆): 2.23 ± 0.06
protein stability index (san1∆): 2.47 ± 0.085
protein stability index (ubr1∆): 2.13 ± 0.047

GAALKDIEIVRVNKNAP [FAS2]
protein stability index (doa10∆): 3.09 ± 0.092
protein stability index (pdr5∆): 3.24 ± 0.12
protein stability index (san1∆): 3.21 ± 0.089
protein stability index (ubr1∆): 3.31 ± 0.084

GTGKSQSGSNSGNNSKK [ROX3]
protein stability index (doa10∆): 3.37 ± 0.3
protein stability index (san1∆): 2.77 ± 0.2
